Experimental data as given in patent US20050064507A1, “Determining kinase specificity” (priority 2003, published 2005).

Target: T1, PKC-delta (Homo sapiens, UniProt Q05655)
T1 construct: purchased Calbiochem
Assay: In vitro kinase assay: peptide phosphorylation by PKC-delta
Assay type: biochemical
Details: peptide concentration 1 uM
How it was run: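 Biotin-Lys-dansyl-Lys-Pro-Pro-Gly-linked proteomic peptides (12–21-residue core) phosphorylated by PKC-delta in HEPES/Triton/CaCl2/MgCl2 buffer with phosphatidyl serine and PMA, 100 μM [γ-32P]ATP, 30° C., ~10 min, stoichiometry ≤5%; streptavidin-plate capture. Signal normalized as % of best peptide substrate.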

T1 sequence (Q05655 whole entry): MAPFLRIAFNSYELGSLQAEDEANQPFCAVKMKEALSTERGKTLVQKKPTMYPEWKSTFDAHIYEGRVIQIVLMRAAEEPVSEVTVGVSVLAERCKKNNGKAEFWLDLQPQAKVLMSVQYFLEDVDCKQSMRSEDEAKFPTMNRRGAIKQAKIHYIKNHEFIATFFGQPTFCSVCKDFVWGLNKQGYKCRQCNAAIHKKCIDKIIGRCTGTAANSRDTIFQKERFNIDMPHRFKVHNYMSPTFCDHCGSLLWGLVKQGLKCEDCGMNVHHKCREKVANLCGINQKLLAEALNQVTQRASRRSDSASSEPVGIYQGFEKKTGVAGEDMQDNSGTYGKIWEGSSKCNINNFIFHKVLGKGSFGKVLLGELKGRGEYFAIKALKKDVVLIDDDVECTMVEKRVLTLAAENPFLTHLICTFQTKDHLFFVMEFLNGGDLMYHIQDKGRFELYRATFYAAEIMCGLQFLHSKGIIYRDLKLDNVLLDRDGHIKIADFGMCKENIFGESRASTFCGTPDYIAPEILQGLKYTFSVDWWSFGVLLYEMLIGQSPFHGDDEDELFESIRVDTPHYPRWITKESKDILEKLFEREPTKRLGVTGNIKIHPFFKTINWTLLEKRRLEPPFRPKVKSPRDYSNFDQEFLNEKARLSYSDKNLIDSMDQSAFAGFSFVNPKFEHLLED

First: 141 (VTDSQKRREILSRRPSYRKI) [compound 141]
Second: 142 (ERHVAQKKSRLRRRASQLKI) [compound 142]
The “phosphorylation by PKC-delta” value of the first is higher: 43 for the first, 30 for the second.

Going from “143 (VRYTPYTISPYNRKGSFRKQ) [compound 143]” to “144 (LSSMFGTLPRKSRKGSVRKQ) [compound 144]”, the “phosphorylation by PKC-delta” value rises from 33 to 35.

Going from “145 (ISDFGLAKKLAVGRHSFSRR) [compound 145]” to “146 (QAQRQIKRGAPPRRSSIRNA) [compound 146]”, the “phosphorylation by PKC-delta” value falls from 34 to 33.

Compared with “147 (RDIRQSPKRGFLRSASLGRR) [compound 147]”, “154 (KKFFTQGWAGWRKKTSFRKP) [compound 154]” is lower in “phosphorylation by PKC-delta” value: 27 for the first, 26 for the second.

Going from “155 (RWDKRRWRKIPKRPGSVHRT) [compound 155]” to “156 (SAQITIPKDGQKRKKSLRKK) [compound 156]”, the “phosphorylation by PKC-delta” value falls from 30 to 29.

Compared with “157 (PSPSNETPKKKKKRFSFKKS) [compound 157]”, “158 (VQMTWSYPDEKNKRASVRRR) [compound 158]” is lower in “phosphorylation by PKC-delta” value: 27 for the first, 18 for the second.

Compared with “159 (LYARLARAYRRSQRASFKRA) [compound 159]”, “160 (PFEVVWYKDKRQLRSSKKYK) [compound 160]” is higher in “phosphorylation by PKC-delta” value: 15 for the first, 25 for the second.

First: 161 (KYKAFIRIPIPTRRHTFRRQ) [compound 161]
Second: 162 (KKKFSFKKPFKLSGLSFKRN) [compound 162]
The “phosphorylation by PKC-delta” value of the first is higher: 22 for the first, 21 for the second.

First: 163 (PPRTPGWHQLQPRRVSFRGE) [compound 163]
Second: 164 (TEGKMARVAWKGKRRSKARK) [compound 164]
The “phosphorylation by PKC-delta” value of the first is lower: 13 for the first, 18 for the second.

For “165 (TEEKSKKRKKKHRKNSRKHK) [compound 165]”, the “phosphorylation by PKC-delta” value was 25.

Same assay, conditions: peptide concentration 10 uM

First: 141 (VTDSQKRREILSRRPSYRKI) [compound 141]
Second: 142 (ERHVAQKKSRLRRRASQLKI) [compound 142]
The “phosphorylation by PKC-delta” value of the first is lower: 21 for the first, 36 for the second.

First: 143 (VRYTPYTISPYNRKGSFRKQ) [compound 143]
Second: 144 (LSSMFGTLPRKSRKGSVRKQ) [compound 144]
The “phosphorylation by PKC-delta” value of the first is higher: 32 for the first, 28 for the second.

Compared with “145 (ISDFGLAKKLAVGRHSFSRR) [compound 145]”, “146 (QAQRQIKRGAPPRRSSIRNA) [compound 146]” is lower in “phosphorylation by PKC-delta” value: 23 for the first, 14 for the second.

First: 147 (RDIRQSPKRGFLRSASLGRR) [compound 147]
Second: 154 (KKFFTQGWAGWRKKTSFRKP) [compound 154]
The “phosphorylation by PKC-delta” value of the first is lower: 13 for the first, 14 for the second.

Compared with “155 (RWDKRRWRKIPKRPGSVHRT) [compound 155]”, “156 (SAQITIPKDGQKRKKSLRKK) [compound 156]” is higher in “phosphorylation by PKC-delta” value: 23 for the first, 31 for the second.

Compared with “157 (PSPSNETPKKKKKRFSFKKS) [compound 157]”, “158 (VQMTWSYPDEKNKRASVRRR) [compound 158]” is lower in “phosphorylation by PKC-delta” value: 35 for the first, 33 for the second.

Compared with “159 (LYARLARAYRRSQRASFKRA) [compound 159]”, “160 (PFEVVWYKDKRQLRSSKKYK) [compound 160]” is higher in “phosphorylation by PKC-delta” value: 12 for the first, 31 for the second.

Going from “161 (KYKAFIRIPIPTRRHTFRRQ) [compound 161]” to “162 (KKKFSFKKPFKLSGLSFKRN) [compound 162]”, the “phosphorylation by PKC-delta” value falls from 14 to 13.

Compared with “163 (PPRTPGWHQLQPRRVSFRGE) [compound 163]”, “164 (TEGKMARVAWKGKRRSKARK) [compound 164]” is higher in “phosphorylation by PKC-delta” value: 21 for the first, 26 for the second.

With “165 (TEEKSKKRKKKHRKNSRKHK) [compound 165]” the “phosphorylation by PKC-delta” value was 19.

Target: T2, PKC-theta (Homo sapiens, UniProt Q04759)
T2 construct: His-tag; made in house; host or cells: baculovirus-infected Sf9 cells
Assay: In vitro kinase assay: peptide phosphorylation by PKC-theta
Assay type: biochemical
Details: peptide concentration 1 uM
How it was run: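 Recombinant human PKC-theta, expressed in baculovirus-infected Sf9 cells and purified on a nickel chelating column, was incubated with biotinylated peptides, 100 μM ATP containing ^32P-gamma ATP, and PKC buffer with CaCl2, MgCl2, phosphatidyl serine and PMA at 30° C. Reactions were stopped with ATP/EDTA. Peptides were captured on streptavidin-coated plates, and phosphorylation was normalized to the best substrate.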

T2 sequence (Q04759 whole entry): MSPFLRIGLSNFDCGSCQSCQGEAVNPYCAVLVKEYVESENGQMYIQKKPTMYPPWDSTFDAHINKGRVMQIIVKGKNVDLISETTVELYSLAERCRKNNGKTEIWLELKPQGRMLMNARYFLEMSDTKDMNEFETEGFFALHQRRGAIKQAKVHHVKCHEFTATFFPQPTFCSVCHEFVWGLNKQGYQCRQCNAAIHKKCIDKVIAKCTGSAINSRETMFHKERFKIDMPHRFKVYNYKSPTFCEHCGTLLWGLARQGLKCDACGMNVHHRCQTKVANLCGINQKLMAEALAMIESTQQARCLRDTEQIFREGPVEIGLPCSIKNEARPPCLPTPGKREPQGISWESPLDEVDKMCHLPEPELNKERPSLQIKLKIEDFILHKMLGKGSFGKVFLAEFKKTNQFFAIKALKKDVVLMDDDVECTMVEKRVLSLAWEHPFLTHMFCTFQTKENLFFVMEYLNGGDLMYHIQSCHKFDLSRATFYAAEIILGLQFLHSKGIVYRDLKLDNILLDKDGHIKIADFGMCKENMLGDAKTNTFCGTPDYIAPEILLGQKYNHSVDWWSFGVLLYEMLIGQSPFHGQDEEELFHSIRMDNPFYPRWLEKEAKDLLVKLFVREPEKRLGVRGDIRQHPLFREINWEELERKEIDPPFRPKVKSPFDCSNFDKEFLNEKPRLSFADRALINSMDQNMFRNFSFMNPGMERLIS

Going from “141 (VTDSQKRREILSRRPSYRKI) [compound 141]” to “142 (ERHVAQKKSRLRRRASQLKI) [compound 142]”, the “phosphorylation by PKC theta” value falls from 29 to 28.

First: 143 (VRYTPYTISPYNRKGSFRKQ) [compound 143]
Second: 144 (LSSMFGTLPRKSRKGSVRKQ) [compound 144]
The “phosphorylation by PKC theta” value of the first is lower: 25 for the first, 35 for the second.

Compared with “145 (ISDFGLAKKLAVGRHSFSRR) [compound 145]”, “146 (QAQRQIKRGAPPRRSSIRNA) [compound 146]” is higher in “phosphorylation by PKC theta” value: 27 for the first, 33 for the second.

Compared with “147 (RDIRQSPKRGFLRSASLGRR) [compound 147]”, “154 (KKFFTQGWAGWRKKTSFRKP) [compound 154]” is higher in “phosphorylation by PKC theta” value: 20 for the first, 34 for the second.

Going from “155 (RWDKRRWRKIPKRPGSVHRT) [compound 155]” to “156 (SAQITIPKDGQKRKKSLRKK) [compound 156]”, the “phosphorylation by PKC theta” value falls from 23 to 18.

Compared with “157 (PSPSNETPKKKKKRFSFKKS) [compound 157]”, “158 (VQMTWSYPDEKNKRASVRRR) [compound 158]” is lower in “phosphorylation by PKC theta” value: 20 for the first, 19 for the second.

First: 159 (LYARLARAYRRSQRASFKRA) [compound 159]
Second: 160 (PFEVVWYKDKRQLRSSKKYK) [compound 160]
The “phosphorylation by PKC theta” value of the first is higher: 21 for the first, 19 for the second.

Compared with “161 (KYKAFIRIPIPTRRHTFRRQ) [compound 161]”, “162 (KKKFSFKKPFKLSGLSFKRN) [compound 162]” is lower in “phosphorylation by PKC theta” value: 19 for the first, 14 for the second.

First: 163 (PPRTPGWHQLQPRRVSFRGE) [compound 163]
Second: 164 (TEGKMARVAWKGKRRSKARK) [compound 164]
The “phosphorylation by PKC theta” value of the first is lower: 14 for the first, 24 for the second.

In the case of “165 (TEEKSKKRKKKHRKNSRKHK) [compound 165]”, the “phosphorylation by PKC theta” value is reported as 16.

Same assay, conditions: peptide concentration 10 uM

First: 141 (VTDSQKRREILSRRPSYRKI) [compound 141]
Second: 142 (ERHVAQKKSRLRRRASQLKI) [compound 142]
The “phosphorylation by PKC theta” value of the first is lower: 28 for the first, 37 for the second.

First: 143 (VRYTPYTISPYNRKGSFRKQ) [compound 143]
Second: 144 (LSSMFGTLPRKSRKGSVRKQ) [compound 144]
The “phosphorylation by PKC theta” value of the first is higher: 27 for the first, 22 for the second.

Compared with “145 (ISDFGLAKKLAVGRHSFSRR) [compound 145]”, “146 (QAQRQIKRGAPPRRSSIRNA) [compound 146]” is higher in “phosphorylation by PKC theta” value: 25 for the first, 34 for the second.

First: 147 (RDIRQSPKRGFLRSASLGRR) [compound 147]
Second: 154 (KKFFTQGWAGWRKKTSFRKP) [compound 154]
The “phosphorylation by PKC theta” value of the first is higher: 69 for the first, 21 for the second.

Going from “155 (RWDKRRWRKIPKRPGSVHRT) [compound 155]” to “156 (SAQITIPKDGQKRKKSLRKK) [compound 156]”, the “phosphorylation by PKC theta” value falls from 26 to 23.

“157 (PSPSNETPKKKKKRFSFKKS) [compound 157]” and “158 (VQMTWSYPDEKNKRASVRRR) [compound 158]” are the same in “phosphorylation by PKC theta” value: 23 for the first, 23 for the second.

Going from “159 (LYARLARAYRRSQRASFKRA) [compound 159]” to “160 (PFEVVWYKDKRQLRSSKKYK) [compound 160]”, the “phosphorylation by PKC theta” value rises from 17 to 25.

First: 161 (KYKAFIRIPIPTRRHTFRRQ) [compound 161]
Second: 162 (KKKFSFKKPFKLSGLSFKRN) [compound 162]
The “phosphorylation by PKC theta” value of the first is higher: 23 for the first, 13 for the second.

Going from “163 (PPRTPGWHQLQPRRVSFRGE) [compound 163]” to “164 (TEGKMARVAWKGKRRSKARK) [compound 164]”, the “phosphorylation by PKC theta” value rises from 11 to 20.

In the case of “165 (TEEKSKKRKKKHRKNSRKHK) [compound 165]”, the “phosphorylation by PKC theta” value is reported as 14.
